Laboratory results as given in US20220195407, “OPTIMIZATION OF ENGINEERED MEGANUCLEASES FOR RECOGNITION SEQUENCES” (Precision BioSciences, Inc., published 2022).
Numbering of substitutions follows the chain as printed.

Tests used:
Assay in all cases: cell_activity; CHO iGFFP reporter
LOX 3-4m.1269 = biological target: T1, LOX 3-4m.1269 (artificial (I-CreI derived))
T1 chain: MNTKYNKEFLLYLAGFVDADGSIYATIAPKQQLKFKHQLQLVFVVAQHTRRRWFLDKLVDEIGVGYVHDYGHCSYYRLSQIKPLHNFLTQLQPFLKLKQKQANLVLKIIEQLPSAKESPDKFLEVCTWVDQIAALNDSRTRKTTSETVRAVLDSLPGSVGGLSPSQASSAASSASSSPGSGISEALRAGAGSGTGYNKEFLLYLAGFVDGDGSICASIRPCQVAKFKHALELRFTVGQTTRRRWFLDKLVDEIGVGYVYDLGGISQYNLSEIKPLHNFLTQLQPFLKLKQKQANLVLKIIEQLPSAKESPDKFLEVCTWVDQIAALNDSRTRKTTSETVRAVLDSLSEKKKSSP
Description: (§1) A CHO cell reporter system (see WO/2012/167192, FIG. 3) was used to determine whether the engineered meganucleases generated in these studies could recognize and cleave the modified LOX 3-4 recognition sequences in Table 87. To perform the assay, a pair of CHO cell reporter lines were produced, which carried a non-functional Green Fluorescent Protein (GFP) gene expression cassette integrated into the genome of the cell. The GFP gene in each cell line was interrupted by a pair of recognition sequences such that intracellular cleavage of either recognition sequence by a meganuclease would stimulate a homologous recombination event resulting in a functional GFP gene. In both cell lines, one of the recognition sequences was derived from the LOX 3-4 recognition sequence (i.e., those sequences disclosed in Table 87), and the second recognition sequence was specifically recognized by a control meganuclease called “CHO 23/24.” CHO reporter cells comprising a recognition sequence derived from the LOX 3-4 recognition sequence and the CHO 23/24 recognition sequence are referred to herein as “test cells.”
(§2) Novel engineered meganucleases derived from the LOX 3-4x.109 meganuclease were prepared by making amino acid substitutions at one or more positions in the first subunit and one or more positions in the second subunit. These engineered meganucleases were then evaluated for cleavage of the LOX 3-4 recognition sequence modified to have an ATAA center sequence (SEQ ID NO: 157) in the CHO reporter assay according to Example 1.

LOX 3-4m.1293 = biological target: T2, LOX 3-4m.1293 (artificial (I-CreI derived))
T2 chain: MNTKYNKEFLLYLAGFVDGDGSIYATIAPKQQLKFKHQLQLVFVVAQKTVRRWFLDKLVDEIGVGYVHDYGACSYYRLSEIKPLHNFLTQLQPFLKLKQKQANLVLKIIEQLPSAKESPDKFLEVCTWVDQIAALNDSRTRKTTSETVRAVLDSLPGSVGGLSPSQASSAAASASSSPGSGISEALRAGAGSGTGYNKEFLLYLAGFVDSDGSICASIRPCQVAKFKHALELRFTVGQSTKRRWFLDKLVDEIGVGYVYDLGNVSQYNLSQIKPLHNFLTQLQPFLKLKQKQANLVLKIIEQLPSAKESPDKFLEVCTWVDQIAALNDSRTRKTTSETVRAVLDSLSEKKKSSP
Description: as §1, §2

LOX 3-4m.1236 = biological target: T3, LOX 3-4m.1236 (artificial (I-CreI derived))
T3 chain: T1 chain with R50T, H72R, C73A, R139K, T239A, R241K, G263Q, I264V, S265A, E271Q
Description: as §1, §2

LOX 3-4m.1237 = biological target: T4, LOX 3-4m.1237 (artificial (I-CreI derived))
T4 chain: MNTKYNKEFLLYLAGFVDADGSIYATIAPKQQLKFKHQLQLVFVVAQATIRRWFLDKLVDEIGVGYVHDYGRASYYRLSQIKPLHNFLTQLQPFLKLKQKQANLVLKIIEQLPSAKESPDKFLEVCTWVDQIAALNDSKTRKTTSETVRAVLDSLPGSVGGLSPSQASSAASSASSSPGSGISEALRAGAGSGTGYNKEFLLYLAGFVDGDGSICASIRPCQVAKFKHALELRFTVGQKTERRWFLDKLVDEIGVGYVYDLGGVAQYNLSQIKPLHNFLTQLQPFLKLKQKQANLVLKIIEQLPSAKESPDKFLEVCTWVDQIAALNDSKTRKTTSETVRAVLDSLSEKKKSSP
Description: as §1, §2

LOX 3-4m.1415 = biological target: T5, LOX 3-4m.1415 (artificial (I-CreI derived))
T5 chain: T4 chain with A48K, I50R, Q80E, E241C, V250A, V264R, A265S, K330R
Description: as §1
as §2, with “ATAG” for “ATAA”, “184)” for “157)”

LOX 3-4m.1345 = biological target: T6, LOX 3-4m.1345 (artificial (I-CreI derived))
T6 chain: T4 chain with A48K, I50R, R72G, E241C, V264R, A265S
Description: as §1
as §2, with “ATAG” for “ATAA”, “184)” for “157)”

LOX 3-4m.1329 = biological target: T7, LOX 3-4m.1329 (artificial (I-CreI derived))
T7 chain: T4 chain with A48H, I50R, E241C, V264R, A265S
Description: as §1
as §2, with “ATAG” for “ATAA”, “184)” for “157)”

LOX 3-4m.1353 = biological target: T8, LOX 3-4m.1353 (artificial (I-CreI derived))
T8 chain: T4 chain with A48K, I50R, K227R, E241C, V250A, G263S, V264R, A265S, K330R
Description: as §1
as §2, with “ATAG” for “ATAA”, “184)” for “157)”

LOX 3-4m.750 = biological target: T9, LOX 3-4m.750 (artificial (I-CreI derived))
T9 chain: T1 chain with H48K, R50C, H72R, C73A, R139K, T239A, G263R
Description: as §1
as §2, with “ACAA” for “ATAA”, “9)” for “157)”

LOX 3-4m.765 = biological target: T10, LOX 3-4m.765 (artificial (I-CreI derived))
T10 chain: T1 chain with H48K, H72R, C73A, T239S, G263R, S265A
Description: as §1
as §2, with “ACAA” for “ATAA”, “9)” for “157)”

LOX 3-4m.684 = biological target: T11, LOX 3-4m.684 (artificial (I-CreI derived))
T11 chain: T1 chain with H48K, H72R, C73A, R139K, T239S, G263T, S265T
Description: as §1
as §2, with “ACAA” for “ATAA”, “9)” for “157)”

B1: LOX 3-4 ATAA (dsDNA)
DNA 1: GTATAGCATATAATATACGAAG
DNA 2: CTTCGTATATTATATGCTATAC
**Q.** With B1 as the binder, how does the activity (LOX 3-4m.1269) read?
**A.** 8.64 % GFP

**Q.** And the activity (LOX 3-4m.1293)?
**A.** 8 % GFP

**Q.** And the activity (LOX 3-4m.1236)?
**A.** 9.28 % GFP

**Q.** What about the activity (LOX 3-4m.1237) of the same binder?
**A.** 8.13 % GFP

B2: LOX 3-4 ATAG (dsDNA)
DNA 1: GTATAGCATATAGTATACGAAG
DNA 2: CTTCGTATACTATATGCTATAC
**Q.** Which results are given for B2?
**A.** activity (LOX 3-4m.1415): 13.1 % GFP; activity (LOX 3-4m.1345): 14 % GFP; activity (LOX 3-4m.1329): 15.5 % GFP; activity (LOX 3-4m.1353): 15.6 % GFP

B3: LOX 3-4 ACAA (dsDNA)
DNA 1: GTATAGCATACAATATACGAAG
DNA 2: CTTCGTATATTGTATGCTATAC
**Q.** Which results are given for B3?
**A.** activity (LOX 3-4m.750): 9.32 % GFP; activity (LOX 3-4m.765): 9.32 % GFP; activity (LOX 3-4m.684): 9.14 % GFP
